Results on twelve molecules are retold here after US20220031822A1 (Janssen / Centocor, published 2022).

B1: A12 BCMA-specific FN3 domain (designed binder)
chain: MLPAPKNLVVSRITEDSARLSWTAPDAAFDSFTIKYIERATWGEAIWLNVPGSERSYDLTGLKPGTEYVVLINGVKGGPESWPLIAHFTT
notes: Detected with an anti-His mAb, so the protein tested carried a His tag
B2: G11 BCMA-specific FN3 domain (designed binder)
chain: MLPAPKNLVVSRITEDSARLSWTAPDAAFDSFWIRYVERLVWGEAIHLHVPGSERSYDLTGLKPGTEYVVVISGVKGGWESTPLVAPFTT
notes: as for B1
B3: F01 BCMA-specific FN3 domain (designed binder)
chain: MLPAPKNLVVSRVTEDSARLSWTAPDAAFDSFIIVYRENIETGEAIVLTVPGSERSYDLTGLKPGTEYYVQIAGVKGGNISFPLSAIFTT
notes: as for B1
B4: G10 BCMA-specific FN3 domain (designed binder)
chain: MLPAPKNLVVSRVTEDSARLSWIAPDAAFDSFIIVYRENIETGEAIVLTVPGSERSYDLTGLKPGTEYYVQIAGVKGGNISFPLSAIFTT
notes: as for B1
B5: D08 BCMA-specific FN3 domain (designed binder)
chain: MLPAPKNLVVSHVTEDSARLSWTAPDAAFDSFIIVYRENIETGEAIVLTVPGSERSYDLTDLKPGTEYYVQIAGVKGGNISFPLSAIFTT
notes: as for B1
B6: E09 BCMA-specific FN3 domain (designed binder)
chain: MLPAPKNLVVSRVTEDSARLSWTAPDAAFDSFRIRYVEVIAWGEAIWLVVPGSERSYDLTGLKPGTEYVVVIDGVKGGKTSIPLIAHFTT
notes: as for B1
B7: B03 BCMA-specific FN3 domain (designed binder)
chain: MLPAPKNLVVSRITEDSARLSWTAPDAAFDSFPIRYIETLIWGEAIWLDVPGSERSYDLTGLKPGTEYTVVIDGVKGGGRSQPLVATFTT
notes: as for B1
B8: A08 BCMA-specific FN3 domain (designed binder)
chain: MLPAPKNLVVSRITEDSARLSWTAPDAAFDSFPIRYIETLIWGEAIWLDVPGSERSYDLTGLKPGTEYAVVITGVKGGRFSSPLVASFTT
notes: as for B1
B9: D10 BCMA-specific FN3 domain (designed binder)
chain: MLPAPKNLVVSRITEDSARLSWTAPDAAFDSFPIRYIETLIWGEAIWLYVPGSERSYDLTGLKPGTEYTVVIDGVKGGGRSQPLVASFTT
notes: as for B1
B10: F11 BCMA-specific FN3 domain (designed binder)
chain: MLPAPKNLVVSRVTEDSARLSWTAPDAAFDSFPIRYIETLIWGEAIWLDVPGSERSYDLTGLKPGTEYVVVIDGVKGGDHSKPLVATFTT
notes: as for B1
B11: C08 BCMA-specific FN3 domain (designed binder)
chain: MLPAPKNLVVSRITEDSARLSWTAPDAAFDSFPIRYIETLIWGEAIWLYVPGSERSYDLTGLKPGTEYTVVISGVKGGESSYPLIAAFTT
notes: as for B1
B12: E02 BCMA-specific FN3 domain (designed binder)
chain: MLPAPKNLVVSRVTEDSARLSWTAPDAAFDSFVIVYSEPDVCGEAIVLTVPGSERSYDLTGLKPGTEYWVRIAGVKGGDFSRPLSAIFTT
notes: as for B1

This assay has as its target T1, human BCMA (B cell maturation antigen) (human, UniProt Q02223 1-184).
T1 construct: whole, on cells; also called hBCMA; TNFRSF17
T1 sequence (looked up): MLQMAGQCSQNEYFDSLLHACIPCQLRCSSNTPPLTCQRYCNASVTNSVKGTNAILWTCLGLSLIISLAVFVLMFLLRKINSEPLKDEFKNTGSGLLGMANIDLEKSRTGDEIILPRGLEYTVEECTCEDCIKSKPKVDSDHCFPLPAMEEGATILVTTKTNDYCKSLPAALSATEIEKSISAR
The experiment in a line: flow cytometry, FN3 domain titration on HEK293F cells transiently expressing human BCMA, anti-His Alexa-488 detection, PRISM one-site specific binding fit. Also on record: Bmax: unit not given here. The method, then: 50 uL secondary antibody in FACS buffer was added to the wells. Anti-His mAb was added at a 1/100 dilution to all of the wells except for the FACS buffer only negative control wells. The plates were incubated on ice for 1 hr. Afterwards, cells were collected and combined from two wells from all four plates to check cell count and viability using Trypan blue on the Vi-Cell system. The cell count was about 67,500/well at 96.6% viability. The cell count of the control cells that were kept on ice for comparison was 1×10⁶/mL at 95.1% viability.
After 1 hr of staining, the plates were spun at 1200 rpm for 5 min at 4° C. to pellet the cells. Buffer was discarded by inverting the plates, and 100 uL FACS buffer were added to the wells. The FACS buffer wash was repeated two more times. The plates were spun at 1200 rpm for 5 min at 4° C. to pellet the cells, and buffer was discarded by inverting the plates.
Cells were resuspended in 30 uL Intellicyt buffer (FACS buffer, 0.1% Pluronic Acid, 1 mM EDTA, SytoX Red Live/Dead Stain at a 1:1000 dilution) and mixed gently by vortexing the plates. The plates were kept on ice and read on an Intellicyt plate reader. Cells were gated in the following order: (a) cells, (b) single cells, (c) viable cells. The Geometric Mean of Alexa 488 channel was calculated, and the percentage of viable single cells was calculated.
In general terms: A flow cytometer gives signals particle by particle.
The Kd is the constant that tells how readily two partners part at equilibrium. Molecule B1 gave a Bmax of 51400 and a Kd of 22 nM.
On the same counts, the results for B2 are 60700 and 1.6 nM.
The corresponding values for B3 are 51600 and 520 nM.
On the same counts, the results for B4 are 72600 and 76 nM.
B5: the Bmax worked out at 61200 and the Kd is 230 nM.
B6 displayed a Bmax of 73600 and a Kd of 130 nM.
Turning to B7, the Bmax was 60900 and binding was characterised by a dissociation constant (Kd) of 8.7 nM.
For B8, the Bmax came to 101000 and the Kd came to 3000 nM.
On the same counts, the results for B9 are 57800 and 4.9 nM.
The corresponding values for B10 are 58200 and 4.2 nM.
On the same counts, the results for B11 are 57900 and 23 nM.
For B12, the Bmax came out at 56700 and the Kd turned out to be 6.5 nM.
